According to patent publication US20190382483A1 (published 2019):

T1: Recombinant hSIRPg-His (Sino Biologicals, reference 11828-H08H) (human, UniProt Q9P1W8 29-360)
T1 chain: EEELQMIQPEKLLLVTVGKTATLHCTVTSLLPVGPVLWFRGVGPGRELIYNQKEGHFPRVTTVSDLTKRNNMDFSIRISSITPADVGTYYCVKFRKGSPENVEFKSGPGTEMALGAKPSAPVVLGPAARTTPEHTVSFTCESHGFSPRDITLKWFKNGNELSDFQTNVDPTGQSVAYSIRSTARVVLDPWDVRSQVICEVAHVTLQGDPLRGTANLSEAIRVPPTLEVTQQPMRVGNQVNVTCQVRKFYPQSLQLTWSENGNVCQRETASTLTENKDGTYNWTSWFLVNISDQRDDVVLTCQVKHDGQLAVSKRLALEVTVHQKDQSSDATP


Target: T1, Recombinant hSIRPg-His (Sino …)
Experiment: Blitz (BLI)

Kd | Binder
5.3 nM | SIRP29 (antibody, V domains shown) VH: EVQLQQSGAELVKPGASVKLSCTASGFNIKDYYIHWVQQRTEQGLEWIGRIDPEDGETKYAPKFQDKATITADTSSNTAYLHLSSLTSEDTAVYYCARWGAYWGQGTLVTVSS VL: QIVLTQSPAIMSASPGEKVTLTCSASSSVSSSYLYWYQQKPGSSPKLWIYSTSNLASGVPARFSGSGSGTSYSLTISSMEAEDAASYFCHQWSSYPRTFGAGTKLELK
2.14 nM | Kwar23 (antibody, V domains shown) VH: EVQLQQSGAELVKPGASVKLSCTASGFNIKDYYIHWVQQRTEQGLEWIGRIDPEDGETKYAPKFQDKATITADTSSNTAYLHLSSLTSEDTAVYYCARWGAYWGQGTLVTVSS VL: QIVLTQSPAIMSASPGEKVTLTCSASSSVSSSYLYWYQQKPGSSPKLWIYSTSNLASGVPARFSGSGSGTSYSLTISSMEAEDAASYFCHQWSSYPRTFGAGTKLELK
